How the values were obtained:
[1] = target: HIV-1 JR-FL Env glycoprotein (unlabelled) on HIV-1 Gag-GFP pseudovirions (HIV-1 JR-FL, UniProt Q75760, strain); test: single-molecule photobleaching of immunostained virions
[2] = target: HIV-1 NL4-3 Env glycoprotein (unlabelled) on HIV-1 Gag-GFP pseudovirions (HIV-1 group M subtype B, NL4-3 (pNL4-3), strain); test: as above

B1: anti-HIV-1 gp120 monoclonal antibody PGT145 (antibody, V domains shown)
VH: QVQLVQSGAEVKKPGSSVKVSCKASGNSFSNHDVHWVRQATGQGLEWMGWMSHEGDKTGLAQKFQGRVTITRDSGASTVYMELRGLTADDTAIYYCLTGSKHRLRDYFLYNEYGPNYEEWGDYLATLDVWGHGTAVTVSS
VL: EVVITQSPLFLPVTPGEAASLSCKCSHSLQHSTGANYLAWYLQRPGQTPRLLIHLATHRASGVPDRFSGSGSGTDFTLKISRVESDDVGTYYCMQGLHSPWTFGQGTKVEIK
- binding result [1]: binds
- binding result [2]: binds

B2: anti-HIV-1 gp41 monoclonal antibody 10E8 (antibody, V domains shown)
VH: EVQLVESGGGLVKPGGSLRLSCSASGFDFDNAWMTWVRQPPGKGLEWVGRITGPGEGWSVDYAAPVEGRFTISRLNSINFLYLEMNNLRMEDSGLYFCARTGKYYDFWSGYPPGEEYFQDWGRGTLVTVSS
VL: SYELTQETGVSVALGRTVTITCRGDSLRSHYASWYQKKPGQAPILLFYGKNNRPSGVPDRFSGSASGNRASLTISGAQAEDDAEYYCSSRDKSGSRLSVFGGGTKLTVL
- binding result [1]: binds
- binding result [2]: binds
